According to patent publication US20160185837A1 (Medimmune Limited, priority 2013, published 2016):
Read-outs that look alike come from different tables or passages of the source.

T1: rat GIP receptor (rGIPr) (Rattus norvegicus, UniProt P43219)
T1 construct: expressed in transfected cells; host or cells: HEK293s or CHO cells
T1 sequence (P43219 19-455): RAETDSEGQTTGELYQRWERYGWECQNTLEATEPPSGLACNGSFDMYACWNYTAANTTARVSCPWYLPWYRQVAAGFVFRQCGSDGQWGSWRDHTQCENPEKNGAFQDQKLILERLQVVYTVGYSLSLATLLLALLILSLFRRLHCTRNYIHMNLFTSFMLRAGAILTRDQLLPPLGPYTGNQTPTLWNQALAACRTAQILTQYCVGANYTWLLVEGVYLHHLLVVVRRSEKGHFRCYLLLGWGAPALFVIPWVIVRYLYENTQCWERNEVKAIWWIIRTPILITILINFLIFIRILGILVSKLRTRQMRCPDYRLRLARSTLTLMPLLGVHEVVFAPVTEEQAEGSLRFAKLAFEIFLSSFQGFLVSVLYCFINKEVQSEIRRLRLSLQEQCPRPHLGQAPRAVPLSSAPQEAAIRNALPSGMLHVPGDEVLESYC

T2: human GIP receptor (hGIPr) (Homo sapiens, UniProt P48546)
T2 construct: expressed in transfected cells
T2 sequence (P48546 22-466): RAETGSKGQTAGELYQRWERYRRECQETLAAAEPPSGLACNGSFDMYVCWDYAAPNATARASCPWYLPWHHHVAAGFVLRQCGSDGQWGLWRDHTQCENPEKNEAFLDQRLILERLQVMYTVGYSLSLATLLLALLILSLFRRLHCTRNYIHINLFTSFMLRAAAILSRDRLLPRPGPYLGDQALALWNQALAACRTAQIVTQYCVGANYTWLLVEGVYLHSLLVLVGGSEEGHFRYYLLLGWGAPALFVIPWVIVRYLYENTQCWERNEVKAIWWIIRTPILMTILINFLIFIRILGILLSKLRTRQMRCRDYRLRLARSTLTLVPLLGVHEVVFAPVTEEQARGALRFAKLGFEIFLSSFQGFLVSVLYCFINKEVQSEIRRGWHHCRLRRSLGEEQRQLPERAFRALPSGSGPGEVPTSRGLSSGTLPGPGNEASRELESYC

T3: rat GLP-1 receptor (rGLP-1r) (Rattus norvegicus, UniProt P32301)
T3 construct: expressed in transfected cells; host or cells: HEK293s or CHO cells
T3 sequence (P32301 22-463): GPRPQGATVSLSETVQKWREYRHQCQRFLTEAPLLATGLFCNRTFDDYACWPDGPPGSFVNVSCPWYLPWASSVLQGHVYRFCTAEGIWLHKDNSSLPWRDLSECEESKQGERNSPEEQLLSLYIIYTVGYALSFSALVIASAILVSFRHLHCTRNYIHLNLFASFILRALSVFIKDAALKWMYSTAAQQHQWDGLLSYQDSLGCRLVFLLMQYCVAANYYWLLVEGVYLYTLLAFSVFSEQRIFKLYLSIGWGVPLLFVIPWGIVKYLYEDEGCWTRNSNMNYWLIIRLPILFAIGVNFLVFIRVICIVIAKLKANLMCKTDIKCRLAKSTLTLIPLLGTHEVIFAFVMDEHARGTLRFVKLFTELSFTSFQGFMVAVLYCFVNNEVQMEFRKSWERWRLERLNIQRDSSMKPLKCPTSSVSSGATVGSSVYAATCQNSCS

T4: mouse GIP receptor (mGIPr) (Mus musculus, UniProt Q0P543)
T4 construct: expressed in transfected cells; host or cells: HEK293s or CHO cells
T4 sequence (Q0P543 19-460): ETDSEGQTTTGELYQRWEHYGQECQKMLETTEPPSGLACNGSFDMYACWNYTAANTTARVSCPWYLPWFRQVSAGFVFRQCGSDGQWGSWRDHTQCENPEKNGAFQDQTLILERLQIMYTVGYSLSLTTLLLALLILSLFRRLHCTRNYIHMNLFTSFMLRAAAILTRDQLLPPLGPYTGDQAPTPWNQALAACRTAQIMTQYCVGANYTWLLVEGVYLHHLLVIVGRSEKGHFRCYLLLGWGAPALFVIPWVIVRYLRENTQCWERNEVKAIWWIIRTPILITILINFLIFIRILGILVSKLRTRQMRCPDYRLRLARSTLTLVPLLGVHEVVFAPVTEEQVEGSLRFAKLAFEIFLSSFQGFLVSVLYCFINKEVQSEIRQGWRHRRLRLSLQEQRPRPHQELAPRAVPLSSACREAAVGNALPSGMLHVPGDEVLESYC

T5: mouse GLP-1 receptor (mGLP-1r) (Mus musculus, UniProt O35659)
T5 construct: expressed in transfected cells; host or cells: HEK293s or CHO cells
T5 sequence (O35659 22-463): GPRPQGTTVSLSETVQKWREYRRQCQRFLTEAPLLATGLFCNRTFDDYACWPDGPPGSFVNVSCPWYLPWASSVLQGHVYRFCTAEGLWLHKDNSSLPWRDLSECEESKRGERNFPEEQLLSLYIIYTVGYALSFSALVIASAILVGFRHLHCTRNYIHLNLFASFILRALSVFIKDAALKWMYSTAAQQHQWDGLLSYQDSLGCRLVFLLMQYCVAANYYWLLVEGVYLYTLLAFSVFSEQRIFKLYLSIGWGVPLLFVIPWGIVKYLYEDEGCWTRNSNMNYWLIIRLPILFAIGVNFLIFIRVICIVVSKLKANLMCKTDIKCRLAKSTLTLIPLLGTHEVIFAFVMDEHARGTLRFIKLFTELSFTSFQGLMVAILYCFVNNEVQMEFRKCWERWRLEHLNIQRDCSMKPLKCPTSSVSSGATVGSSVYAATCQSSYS


How the values were obtained:
Type in all cases: cell-based
rat GIP receptor (rGIPr) = target: T1, rat GIP receptor (rGIPr); test: BSA-cAMP assay, cells expressing rat GIP receptor; conditions: BSA-cAMP assay
Description: (§1) One basic cAMP assays was performed, differing in the medium used for the assay, the “BSA-cAMP assay”:
(§2) BSA-based assay medium: 0.1% bovine serum albumin (BSA) in
(§3) In certain aspects, the assay can also be carried out in medium supplemented with serum albumin that corresponds to the receptor being tested, e.g., human serum albumin for testing cAMP activity at hGIPr or hGLP-1r, rat serum albumin for testing cAMP activity at rGIPr or rGLP-1r, and so on. […] All sample dilutions were made in duplicate.
(§4) A frozen cryo-vial of cells expressing the receptor of interest was thawed rapidly in a water-bath, transferred to pre-warmed assay media and spun at 240×g for 5 minutes. Cells were re-suspended in assay buffer at an optimized concentration (e.g., hGLP-1r and hGIPr cells at 0.5×10^5 cells/ml).
(§5) To this, 5 μL cell suspension was added and the plates incubated at room temperature for 30 minutes.
(§6) cAMP levels were measured using a commercially available cAMP dynamic 2 HTRF kit (Cisbio, Cat #62AM4PEJ), following the two step protocol as per manufacturer's recommendations. In brief; anti-cAMP cryptate (donor fluorophore) and cAMP-d2 (acceptor fluorophore) were made up separately by diluting each 1/20 in conjugate & lysis buffer provided in the kit. 5 μL anti-cAMP cryptate was added to all wells of the assay plate, and 5 μL cAMP-d2 added to all wells except non-specific binding (NSB) wells, to which conjugate and lysis buffer was added. […] Data was transformed to % Delta F as described in manufacturer's guidelines and then transformed to percent activation of maximal native agonist response and analysed by 4-parameter logistic fit to determine EC50 values.
(§7) We used unconstrained 4 parameter logistic fit of data, curve mid-point to determine EC50. This was tested on two occasions, not two batches.
(§8) In order to be able to carry out in vivo studies in rodents, IP088 was tested for potency against the mouse receptors mGIPr and mGLP-1r as well as the rat receptors rGIPr and rGLP-1r, using cells expressing the respective receptors in the cAMP assay described above.

[1] = target: T6, human glucagon receptor (GCGr) (Homo sapiens, UniProt P47871); test: BSA-cAMP assay, cells expressing human glucagon receptor; conditions: Batch 1, read-out: hGCGr cAMP activity EC50
T6 construct: expressed in transfected cells; host or cells: HEK293s or CHO cells
Description: as §1, §2, §3, §4, §5, §6, §7

[2] = target: T2, human GIP receptor (hGIPr); test: BSA-cAMP assay, cells expressing human GIP receptor; conditions: BSA-cAMP assay
Description: For human GIPr, two different lines were used, shown as “hGIPr” and “hGIPr (C3)” in Table 11.
as §1, §2, §3, §4, §5, §6, §7

[3] = target: T7, human GLP-1 receptor (hGLP-1r) (Homo sapiens, UniProt P43220); test: BSA-cAMP assay, cells expressing human GLP-1 receptor; conditions: BSA-cAMP assay
T7 construct: expressed in transfected cells
Description: as §1, §2, §3, §4, §5, §6, §7

[4] = target: T3, rat GLP-1 receptor (rGLP-1r); test: BSA-cAMP assay, cells expressing rat GLP-1 receptor; conditions: BSA-cAMP assay
Description: as §1, §2, §3, §4, §5, §6, §7, §8

[5] = target: T4, mouse GIP receptor (mGIPr); test: BSA-cAMP assay, cells expressing mouse GIP receptor; conditions: BSA-cAMP assay
Description: as §1, §2, §3, §4, §5, §6, §7, §8

[6] = target: T5, mouse GLP-1 receptor (mGLP-1r); test: BSA-cAMP assay, cells expressing mouse GLP-1 receptor; conditions: BSA-cAMP assay
Description: as §1, §2, §3, §4, §5, §6, §7, §8

[7] = Batch 1, read-out: rGIPr cAMP activity EC50
[8] = Batch 1, read-out: hGIPr cAMP activity EC50
[9] = Batch 1, read-out: hGLP1r cAMP activity EC50
[10] = Batch 1, read-out: rGLP1r cAMP activity EC50
[11] = Batch 1, read-out: mGIPr cAMP activity EC50
[12] = Batch 1, read-out: mGLP1r cAMP activity EC50
[13] = read-out: cAMP activity rGIPr (EC50)
[14] = batch 1 unless a batch is given, read-out: cAMP activity hGIPr (EC50)
[15] = batch 1 unless a batch is given, read-out: cAMP activity hGLP1r (EC50)
[16] = read-out: cAMP activity rGLP1r (EC50)
[17] = read-out: cAMP activity mGIPr (EC50)
[18] = read-out: cAMP activity mGLP1r (EC50)

T6 sequence (P47871 26-477): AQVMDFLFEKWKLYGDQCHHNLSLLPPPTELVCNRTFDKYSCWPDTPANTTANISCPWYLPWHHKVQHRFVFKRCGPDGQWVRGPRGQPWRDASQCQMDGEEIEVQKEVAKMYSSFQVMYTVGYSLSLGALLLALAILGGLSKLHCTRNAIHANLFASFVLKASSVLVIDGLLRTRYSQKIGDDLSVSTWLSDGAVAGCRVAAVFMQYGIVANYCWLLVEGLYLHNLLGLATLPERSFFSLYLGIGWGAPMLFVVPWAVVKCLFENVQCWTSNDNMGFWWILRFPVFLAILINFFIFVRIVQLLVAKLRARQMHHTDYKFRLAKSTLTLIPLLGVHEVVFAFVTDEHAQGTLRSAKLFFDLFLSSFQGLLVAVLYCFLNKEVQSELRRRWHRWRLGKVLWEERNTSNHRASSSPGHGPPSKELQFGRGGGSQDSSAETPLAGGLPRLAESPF
T7 sequence (P43220 24-463): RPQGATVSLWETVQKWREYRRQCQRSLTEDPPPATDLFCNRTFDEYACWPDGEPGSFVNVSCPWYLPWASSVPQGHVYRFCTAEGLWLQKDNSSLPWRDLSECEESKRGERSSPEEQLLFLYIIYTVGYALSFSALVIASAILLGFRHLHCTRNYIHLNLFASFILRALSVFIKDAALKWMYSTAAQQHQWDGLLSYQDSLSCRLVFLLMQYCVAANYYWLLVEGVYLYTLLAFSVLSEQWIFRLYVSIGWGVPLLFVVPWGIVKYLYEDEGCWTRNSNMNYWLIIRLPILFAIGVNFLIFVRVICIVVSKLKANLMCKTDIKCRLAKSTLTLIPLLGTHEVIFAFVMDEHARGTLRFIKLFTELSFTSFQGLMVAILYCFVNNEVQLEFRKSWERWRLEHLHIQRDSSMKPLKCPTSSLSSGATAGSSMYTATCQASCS

Molecule | EC50 (rat GIP receptor (rGIPr); [7]) [nM] | EC50 [1] [nM] | EC50 [2, 8] [nM] | EC50 [3, 9] [nM] | EC50 [4, 10] [nM] | EC50 [5, 11] [nM] | EC50 [6, 12] [nM] | EC50 (rat GIP receptor (rGIPr); [13]) [nM] | EC50 [2, 14] [nM] | EC50 [3, 15] [nM] | EC50 [4, 16] [nM] | EC50 [5, 17] [nM] | EC50 [6, 18] [nM]
IP301 (protein) YSEGTFTSDVSSYLEREAIDEFIAWLLKGGAAAGGSGSTASSGSGSATGGGGAATHTCPPC | 4.7 | 12000 | 0.12 | 0.31 | 0.058 | 22 | 1.9 |  |  |  |  |  | 
IP306 (protein) YSEGTFTSDYSKLLERQAIDEFIAWLLKGGAAAGGSGSTASSGSGSATGGGGAATHTCPPC | 0.026 | 220 | 0.011 | 0.1 | 0.015 | 0.25 | 0.25 |  |  |  |  |  | 
IP309 (protein) YSEGTFISDVSSYLERQAIDEFIAWLLKGGAAAGGSGSTASSGSGSATGGGGAATHTCPPC | 1.3 | 900 | 0.086 | 7.7 | 1.7 | 15 | 16 |  |  |  |  |  | 
IP378 (protein) YSEGTFTSLYRILLERQAIDEFIAWLLKGGAAAGGSGSTASSGSGSATGGGGAATHTCPPC | 0.4 | > 2250 |  | 17 |  | 3.1 | 100 |  |  |  |  |  | 
IP307 (protein) YSEGTFTSDVSSYMERQAIDEFIAWLLKQGAAAGGSGSTASSGSGSATGGGGAATHTCPPC | 5.2 | 4100 | 0.091 | 1.6 | 0.21 | 31 | 6.5 |  |  |  |  |  | 
IP394 (protein) YSEGMHTSDLSKLLERQAIDEFIAWLLKGGAAAGGSGSTASSGSGSATGGGGAATHTCPPC | 0.06 | > 17600 | 0.0095 |  | 0.23 | 10 | 10 |  |  |  |  |  | 
IP226 (protein, /note=“Description of Artificial Sequence Synthetic Peptide-linker-hinge polypeptide”) YSEGTFTSDVSKLLERQAIDEFIAWLLKGGAAAGGSGSTASSGSGSATGGGGAATHTCPPCPAPEF |  |  |  |  |  |  |  | 0.27 | 0.025 | 0.2 | 0.061 | 7.5 | 1
IP250 (protein, /note=“Description of Artificial Sequence Synthetic Peptide-linker-hinge polypeptide”) YSEGTFTSDVSIAMDRQAIDEFIAWLLKGGAAAGGSGSTASSGSGSATGGGGAATHTCPPCPAPEF |  |  |  |  |  |  |  | 5.3 | 0.11 | 1.1 | 2.2 | 35 | 22
